Patent US20040110922A1

Columns and labels:
Assay in all cases: cell-based or functional assay
[1] = target: gp120 of HIV-1 clade C primary isolate DU422 (R5), on virus (HIV-1 DU422)
[2] = target: gp120 of HIV-1 IIIB (laboratory strain, on virus) (HIV-1 IIIB)
[3] = target: gp120 of HIV-1 clade C primary isolate DU179 (R5/X4), on virus (HIV-1 DU179)
[4] = target: gp120 of HIV-1 clade B primary isolate Bal, on virus (HIV-1 Bal)
[5] = target: gp120 of HIV-1 clade B primary isolate JR-FL, on virus (HIV-1 JR-FL)
[6] = target: gp120 of HIV-1 MN (laboratory strain, on virus) (HIV-1 MN)
[7] = target: gp120 of HIV-1 clade B primary isolate PVO, on virus (HIV-1 PVO)
[8] = target: gp120 of HIV-1 clade C primary isolate DU368 (R5), on virus (HIV-1 DU368)
[9] = target: gp120 of HIV-1 clade C primary isolate DU151 (R5), on virus (HIV-1 DU151)
[10] = target: gp120 of HIV-1 clade B primary isolate P15, on virus (HIV-1 P15)
[11] = target: gp120 of HIV-1 clade B primary isolate GV, on virus (HIV-1 GV)

product of clone 611-2, CD4(V1 + V2)-hIgG1 (from UniProt P01730 26-203) (Fc fusion)
% reduction in p24 in PMBC at 890 nM [1]: 9% | ID50 (nM), protection of MT-2 cells from virus-induced cell killing [2]: 0.79 nM | % reduction in p24 in PMBC at 890 nM [3]: 78% | % reduction in p24 in PMBC at 890 nM [4]: 100% | ID90 (nM), 90% reduction of p24 production in PMBC [4]: 5.3 nM | % reduction in p24 in PMBC at 890 nM [5]: 100% | ID90 (nM), 90% reduction of p24 production in PMBC [5]: 8.2 nM | ID50 (nM), protection of MT-2 cells from virus-induced cell killing [6]: < 0.41 nM | % reduction in p24 in PMBC at 890 nM [7]: 96% | % reduction in p24 in PMBC at 890 nM [8]: 53% | % reduction in p24 in PMBC at 890 nM [9]: 63% | % reduction in p24 in PMBC at 890 nM [10]: 94% | % reduction in p24 in PMBC at 890 nM [11]: 88%
